In US20120220015:

Assays:
[1] = target: fibrin (clot formed from purified fibrinogen with α-thrombin) (UniProt P02671)
α2-antiplasmin = target: T1, α2-antiplasmin (UniProt P08697)
T1 sequence: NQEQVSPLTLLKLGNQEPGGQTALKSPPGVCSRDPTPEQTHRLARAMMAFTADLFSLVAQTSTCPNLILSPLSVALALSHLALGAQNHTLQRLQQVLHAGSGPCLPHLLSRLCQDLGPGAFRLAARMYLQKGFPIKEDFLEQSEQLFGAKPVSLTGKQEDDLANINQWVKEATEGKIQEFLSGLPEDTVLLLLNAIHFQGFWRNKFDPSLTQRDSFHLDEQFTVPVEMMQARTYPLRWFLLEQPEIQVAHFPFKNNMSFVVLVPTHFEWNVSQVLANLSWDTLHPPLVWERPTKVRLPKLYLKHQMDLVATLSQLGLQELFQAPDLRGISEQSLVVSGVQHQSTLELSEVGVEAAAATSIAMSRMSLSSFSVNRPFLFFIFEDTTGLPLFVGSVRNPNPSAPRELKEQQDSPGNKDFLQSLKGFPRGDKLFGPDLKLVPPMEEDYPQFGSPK

Sequence of fibrin (clot formed from purified fibrinogen with α-thrombin) (P02671 36-629, chain 1 of 3): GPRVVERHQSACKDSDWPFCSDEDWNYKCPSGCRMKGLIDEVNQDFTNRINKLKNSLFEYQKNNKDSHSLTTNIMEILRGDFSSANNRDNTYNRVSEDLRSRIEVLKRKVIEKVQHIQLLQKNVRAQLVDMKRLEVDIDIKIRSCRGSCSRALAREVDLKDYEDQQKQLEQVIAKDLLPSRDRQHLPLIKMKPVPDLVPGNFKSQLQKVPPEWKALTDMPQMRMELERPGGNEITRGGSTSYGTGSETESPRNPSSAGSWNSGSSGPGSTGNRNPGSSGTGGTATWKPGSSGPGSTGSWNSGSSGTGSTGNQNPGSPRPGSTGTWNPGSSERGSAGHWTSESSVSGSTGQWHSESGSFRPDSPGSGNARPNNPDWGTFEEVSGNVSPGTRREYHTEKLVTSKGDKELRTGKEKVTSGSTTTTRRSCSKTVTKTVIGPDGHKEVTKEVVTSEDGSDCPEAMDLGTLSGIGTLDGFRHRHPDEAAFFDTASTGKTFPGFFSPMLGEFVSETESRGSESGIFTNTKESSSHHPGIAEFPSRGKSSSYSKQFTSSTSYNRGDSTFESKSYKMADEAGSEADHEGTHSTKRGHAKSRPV
Sequence of fibrin (clot formed from purified fibrinogen with α-thrombin) (chain, as listed by the source, chain 2 of 3): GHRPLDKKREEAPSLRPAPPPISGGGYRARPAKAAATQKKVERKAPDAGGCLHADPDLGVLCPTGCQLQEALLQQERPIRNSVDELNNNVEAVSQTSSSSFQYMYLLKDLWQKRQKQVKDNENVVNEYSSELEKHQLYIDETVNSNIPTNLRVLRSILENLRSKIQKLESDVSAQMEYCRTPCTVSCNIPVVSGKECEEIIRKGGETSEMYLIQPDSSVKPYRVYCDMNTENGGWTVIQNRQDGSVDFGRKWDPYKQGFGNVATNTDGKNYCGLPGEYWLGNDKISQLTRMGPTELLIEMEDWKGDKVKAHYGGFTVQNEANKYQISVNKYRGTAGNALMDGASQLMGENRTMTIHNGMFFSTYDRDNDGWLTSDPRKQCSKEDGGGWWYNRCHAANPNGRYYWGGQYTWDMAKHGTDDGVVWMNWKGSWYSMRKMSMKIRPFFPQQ
Sequence of fibrin (clot formed from purified fibrinogen with α-thrombin) (chain, as listed by the source, chain 3 of 3): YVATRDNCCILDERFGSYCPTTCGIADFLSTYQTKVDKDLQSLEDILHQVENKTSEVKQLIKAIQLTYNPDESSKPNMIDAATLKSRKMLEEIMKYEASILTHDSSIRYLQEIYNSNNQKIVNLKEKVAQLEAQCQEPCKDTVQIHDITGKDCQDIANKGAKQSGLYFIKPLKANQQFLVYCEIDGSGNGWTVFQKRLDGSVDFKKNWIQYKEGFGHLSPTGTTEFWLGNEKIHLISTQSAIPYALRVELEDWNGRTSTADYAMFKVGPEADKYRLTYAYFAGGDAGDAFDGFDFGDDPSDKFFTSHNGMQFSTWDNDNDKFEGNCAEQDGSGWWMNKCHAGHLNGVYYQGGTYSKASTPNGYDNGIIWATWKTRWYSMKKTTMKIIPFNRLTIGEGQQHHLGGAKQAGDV

In the case of “human reference plasmin (commercial, human-derived plasmin)”, the “fibrin clot lysis (decrease of turbidity at 340 nm), plasmin at 500, 250, 125 and 62 nM” value [1] is reported as “steeper slopes of the curves with increasing plasmin concentrations” and the “plasmin activity (S-2403 hydrolysis at 405 nm) after 30 minutes pre-incubation with α2-AP, plasmin:α2-AP molar ratio of 1:1” value (α2-antiplasmin) is reported as “no plasmin activity was detected for human, BAP12-B2-150, or BAP01-B1-230 plasmin, indicating that the inhibition was complete”.
